Data from the DeepSol protein solubility set.

test: soluble on expression in E. coli; label from the status in PepcDB or PDB records

Sequence | soluble on expression in E. coli
MGSDKIHHHHHHMKVLHVNAGLENGGGLSHIVNLLTEAKRENKDFDLLTLADGPVAAAAREHGINTYVLGAKSRYNLASLKKLIKFINDGHYDIVHTHGARANLFLSLIHKRISAVWCVTVHSNPYLDFEGRGFLGKVFTKFNLRALKKADCIFAVTKRFANLLVNQTQLDKNKVHVIYNGIFFHNDSEIPAKYEHTYFNVINVARTEKVKGQELLLKAVKKLNDQHIRLHIAGDGSQLEPLKALTRQLNMAPQVTFHGFMTHHQLSGLYKRIDLAVLTSYSESFPLVLLEATDNLIPILSTDVGDIHKMIPGPKYGFIAKTGDIDSIAKQLELAVNKTTKQLREMAYTEKRYAEEHFSVKNQLADIEKVYSTLI | not soluble
MGSDKIHHHHHHMSQRLQALYGLKWNPFSPELPLEALYVPPRVENFCWRIENALVREGGFAMIHGEPGTGKSVVMRVLAEKLERLTDLTVVSINHPQSNLADFYREMGDIFGLELRPHNRWGGFRSLRDRWMSHLQSTRRRPILLIDEAQEMSPGVLNELRLMASARFDSQPLLCVVLAGDTRLTDKLRRDELLPLGSRIRSRLGTEKASADDLLACLDHLLASAGAPQLMTPPLRHTLCEHALGNYRVLTTLANELLTTAAQRELSELDEKLYFEVFAPSTQSSRRTPARQPNGAR | not soluble
GPGSMPGGGLEVIGTPALPHPSSASDADDAAAGCSFRLSQSGGDPRYVSSRVAGRMQDARHGAESRLVDGTATFLDFLAETSVERPLRVRLRQRARQSFVFFNLETAIDCLNLSWEAYAVQESRGDDFISTGIQVNAAEVPRAALGFVERVAMALLGLCFNPSPHVCHALDDSEEDAAAAISFTSGGDRTPLLDERRASRSRSPVRAPLGAEVASSATRATQADLAAAALFPHCGSSSTRSGSCQPFFRQPAPAASATSPCFGGTSSPPGAAAAGASSFSSSPSNRIGSFPTSASAATANAGADAARLPHMNPEQYGYHRVAVLEARGVQVVVVRMDTSGSCPVHIGKVPRLVIAFRGTDNVANVMEDIRFRQRTWKEMKTPTLSGRASVHSGFLELWMSLKERVIDVVLRELRSQCTPLEGSNAEVSAAGTTGHAGEGASTVAGCSPSQAGHDMFHATVPFSDIWSLRRNGGGRGCADTRQGAFGSEQGGFEGFMRVYVTGHSLGGALASLCAYTLRRMLLLIQYPEPDLVVYTFGQPRIGNFVFKQYYNRAVPCTFRVVNESDAVSGFNFFGGHHVGVQVNIDRHGNYICKPMYIERMFRPTRGRGFALANHAISAYASSLNAMANVYTHGACPLRCRQPYMGEIVSVSSTNSE | not soluble
MTKETTQHRSGERIARFADIEVLSYRADLFGTLTPKQRMLCYHLSEAALRGRDITTIQNCRYNLWVRSLMERIYTHLSKSERTDDFALLEEYLFCIWFANGIHHHYSGAKFIARFSPGFLRAALREAGVELEPEEQVLLERVLYDTDFLPKQTEQSGEEDIIKASSVNFYAPGITRAEAESHYKNLIEALPENEKSCPPSFGLNTRLIRSTSGELKDEVCCIDGLYGPAIEAVVASLEAAIPYTENEEQAACIRLLCDYYRTGDIRLYDRFCIRWVENNRTRIDFINGFTEVYADPIGIHGSWEGLVHMQDEEAGRRTRIISEHAGWFEAHSPIDARFRKKNPHGISATVVNVLTIAGDSYPATPIGINLPNADWIRAEHGSKSVTIDNITDAYNHAARGTGLYEEFIPDEEVRRHVELHADLTDSLHTDLHECLGHGSGQLLPGVPGDALGEHASTLEETRADLFALYFLADPKMIELGLLTDPDAYKANYYKYMLNGLMTQLVRIKRGEEIEEAHMRNRALIARYVLEHAERPGAMSLVCEEGKTALVIKDYEAVRAIIAGLLTEVQRIKSEGDYTAGKALVERYAVHVDPLLHEEVLTRYAKLDIAPYKGFVNPRLRPVYNSEGRLTDATIEYTEGYAEQMLRYSAEYSFLPTDSPLLQEARRLRSHLRRAMDGVLSASMREKGLHYGINFGVTREHLLRLARTADASAPLADYLWRRDVRETKILATMIFPAEELTHEQATRLLREADNVELREQLTANLLERMPEAIRSIGRWIESKETTPDMMTGVLTLAARLFTRGIFPEDVPAEKLLTLAILHLSDEEQKAELRRASALLLKRYGRGSAERTKKVLCLLPESSQDTAPVLYELCEDIRFELDFYPKDE | not soluble
MSKAFVDGLLQSSKVVVFSKSYCPYCHKARAALESVNVKPDALQWIEIDERKDCNEIQDYLGSLTGARSVPRVFINGKFFGGGDDTAAGAKNGKLAALLKETGAL | not soluble
MPSGLFMDLLPFLLDANLSATNPPAIPHWWKRQPLIPNLLSQELKNYLKLNVKEKNIQIADQVIIDETAGEVVIGANTRICHGAVIQGPVVIGANCLIGNWICPYISRHLLSLNPLQARCRRYSRGERLEHHHHHH | not soluble
QDTSPDTLVVTANRFEQPRSTVLAPTTVVTRQDIDRWQSTSVNDVLRRLPGVDITQNGGSGQLSSIFIRGTNASHVLVLIDGVRLNLAGVSGSADLSQFPIALVQRVEYIRGPRSAVYGSDAIGGVVNIITTRDEPGTEISAGWGSNSYQNYDVSTQQQLGDKTRVTLLGDYAHTHGYDVVAYGNTGTQAQTDNDGFLSKTLYGALEHNFTDAWSGFVRGYGYDNRTNYDAYYSPGSPLLDTRKLYSQSWDAGLRYNGELIKSQLITSYSHSKDYNYDPHYGRYDSSATLDEMKQYTVQWANNVIVGHGSIGAGVDMQMQMTTPGTGYVEDGYDQRNTGIYLTGLQQVGDFTFEGAARSDDNSQFGRHGTWQTSAGWEFIEGYRFIASYGTSYKAPNLGQLYGFYGNPNLDPEKSKQWEGAFEGLTAGVNWRISGYRNDVSDLIDYDDHTLKYYNEGKARIKGVEATANFDTGPLTHTVSYDYVDARNAITDTPLLRRAKQQVKYQLDWQLYDFDMGMTMQYLGTRYDKDYSSYPYQTVKMGGVSLWDLAVAYPVTSHLTVRGKIANLFDKDYETVYGYQTAGREYTLSGSYTF | soluble
MKAAPLIGISRHRLSTDGEGVTTLVAFHGCPLRCKYCLNPQSLHSEGIWKNYDCEQLYEEVRQDELYFLATNGGITFGGGEPCLQSDFIYEFRQLCGQEWQLSVETSLNVTQENIEKLVPVVDSYIIDIKDINNTIYQKYTGKNNEKVLHNLQYLIEHGKNEQIIVRTPVIPAYNTENDVDNSIRLLKEMGIIQFDRFTYKTPNNCQP | not soluble
MSLAEPRNGESAGADAVLTKAIEDALGNGTGSVTVDLPQAEGKAKAGDLVTLRYTMTTADGALVATTEESVAADKGRPRSVAFTARSRYRPEEIVAGGEGNLPGVAEAVIGMAPGEKKHLSLSADKAFGARDPQRVVTMATVKSLPRTVAIPAADYVKNFGALPVVGKELPVVPYFPARVIEVTEQQAKLQLLARDGERFTESFGAVETKVDGESVKIRLVPTIGAPFEFRGARGTITAAGEENFTVDFNHPLADRSVVLDLEVVSLTKGEKLAAISVPWLENHDQGLEKAKQEEKPAVLVLYADWCQWCKKLFGETAEDPRIKAVSDRFVWIRVNSDKEKAYKEQYGQDGYPLIVLLDRQGKVAKKLDGFRDAAGLREELNALLEGHHHHHH | soluble
MSQVQNNSSVSELLASNSGSIKSYRKDEEDPQDRFLKLLVTQMQNQDPLSPMDNAEVTSQMAQISTVSGIDKLNTTLEKLVADSDARRSFEAATMIGRGVLVPGTDMQLENQAAIGGFELAESVDKLTVTVKDSAGITVREIDLGAQAAGVGTFVWDGMANNGNAAADGQYSFALKAIRADKEVSSSALAFGSVSSAQAGKDGALLEVGRLGYVGMDAVKKIF | not soluble
MFTAKCAMQNIRNVAIVGSGQMGSGIAQVTASSGFNVMLADVNKKALDRAMKAISQSVTHLSKKQKGTDKEKSDFVTLTMSRIKTCNNVSTAVADADLIIEAAIENIDLKRGIFAQIEQSCKKDSILTTNTSSFLLEDVAKGLQDKTRFGGLHFFNPVPVMKLLEVIRSDDTSDETYATLIKFGTAVGKTTVACKDSPGFIVNRLLIPYFFEAARMYERGDASMTDIDEAMKLGAGHPMGPFELADYIGLDTVKFVMDGWAAKYPEVQLFEASPLVDKLVAEGKLGRKTGDGFYSYKK | not soluble
MAYKFLSEDWIKAYAEEWNKNEKLMNDLKNFSASIKYYVEGKENDAVELIIEKGKAVSAGKADPNKRYDFELWASLENWKKLATGEMGPRAAMLTKRLKFKGSMITAMKYMGAFEESLKMMGRVPTVWDV | not soluble
SYVQEHRLWGLMDKPHSAPCLMSLSLSFLICNKGRNAIRVQQSTDERMDAMLLWQCPTQGTRKNHESNSSLHHVPNWIFHSTIIPPNKGSKRCLRKVDWLLPRAGGVGGKRGVTADGDRVSF | soluble
